Data taken from paper PMC8427231, “Mechanism of dimerization and structural features of human LI-cadherin” (The Journal of Biological Chemistry, 2021).

T1: human LI-cadherin EC1-5 (human)
T1 chain: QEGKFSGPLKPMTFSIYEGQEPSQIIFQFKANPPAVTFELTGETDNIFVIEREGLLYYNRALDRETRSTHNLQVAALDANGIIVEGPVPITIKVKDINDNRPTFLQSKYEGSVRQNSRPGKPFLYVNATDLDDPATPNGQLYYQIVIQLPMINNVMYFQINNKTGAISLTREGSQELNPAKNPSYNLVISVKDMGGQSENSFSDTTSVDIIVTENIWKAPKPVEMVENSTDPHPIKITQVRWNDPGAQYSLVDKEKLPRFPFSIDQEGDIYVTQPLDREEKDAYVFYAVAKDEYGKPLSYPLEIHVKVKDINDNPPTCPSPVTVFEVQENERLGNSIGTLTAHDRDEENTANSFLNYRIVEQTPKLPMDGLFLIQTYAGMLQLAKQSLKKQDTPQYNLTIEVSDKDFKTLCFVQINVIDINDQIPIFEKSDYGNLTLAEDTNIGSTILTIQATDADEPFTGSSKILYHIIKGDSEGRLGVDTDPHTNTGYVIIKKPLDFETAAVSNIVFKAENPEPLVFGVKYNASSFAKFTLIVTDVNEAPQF

B1: human LI-cadherin EC1-4 N176A (domain or fragment)
chain: QEGKFSGPLKPMTFSIYEGQEPSQIIFQFKANPPAVTFELTGETDNIFVIEREGLLYYNRALDRETRSTHNLQVAALDANGIIVEGPVPITIKVKDINDNRPTFLQSKYEGSVRQNSRPGKPFLYVNATDLDDPATPNGQLYYQIVIQLPMINAVMYFQINNKTGAISLTREGSQELNPAKNPSYNLVISVKDMGGQSENSFSDTTSVDIIVTENIWKAPKPVEMVENSTDPHPIKITQVRWNDPGAQYSLVDKEKLPRFPFSIDQEGDIYVTQPLDREEKDAYVFYAVAKDEYGKPLSYPLEIHVKVKDINDNPPTCPSPVTVFEVQENERLGNSIGTLTAHDRDEENTANSFLNYRIVEQTPKLPMDGLFLIQTYAGMLQLAKQSLKKQDTPQYNLTIEVSDKDFKTLCFVQINVID
notes: human LI-cadherin, extracellular cadherin repeats 1-4, point mutant; Parent: m4; source: Expi293F cells, culture supernatant, purified (Ni-NTA IMAC, SEC)
B2: human LI-cadherin EC1-4 Y399A (domain or fragment)
chain: QEGKFSGPLKPMTFSIYEGQEPSQIIFQFKANPPAVTFELTGETDNIFVIEREGLLYYNRALDRETRSTHNLQVAALDANGIIVEGPVPITIKVKDINDNRPTFLQSKYEGSVRQNSRPGKPFLYVNATDLDDPATPNGQLYYQIVIQLPMINNVMYFQINNKTGAISLTREGSQELNPAKNPSYNLVISVKDMGGQSENSFSDTTSVDIIVTENIWKAPKPVEMVENSTDPHPIKITQVRWNDPGAQYSLVDKEKLPRFPFSIDQEGDIYVTQPLDREEKDAYVFYAVAKDEYGKPLSYPLEIHVKVKDINDNPPTCPSPVTVFEVQENERLGNSIGTLTAHDRDEENTANSFLNYRIVEQTPKLPMDGLFLIQTAAGMLQLAKQSLKKQDTPQYNLTIEVSDKDFKTLCFVQINVID
notes: as for B1
B3: human LI-cadherin EC1-4 (domain or fragment)
chain: QEGKFSGPLKPMTFSIYEGQEPSQIIFQFKANPPAVTFELTGETDNIFVIEREGLLYYNRALDRETRSTHNLQVAALDANGIIVEGPVPITIKVKDINDNRPTFLQSKYEGSVRQNSRPGKPFLYVNATDLDDPATPNGQLYYQIVIQLPMINNVMYFQINNKTGAISLTREGSQELNPAKNPSYNLVISVKDMGGQSENSFSDTTSVDIIVTENIWKAPKPVEMVENSTDPHPIKITQVRWNDPGAQYSLVDKEKLPRFPFSIDQEGDIYVTQPLDREEKDAYVFYAVAKDEYGKPLSYPLEIHVKVKDINDNPPTCPSPVTVFEVQENERLGNSIGTLTAHDRDEENTANSFLNYRIVEQTPKLPMDGLFLIQTYAGMLQLAKQSLKKQDTPQYNLTIEVSDKDFKTLCFVQINVID
modifications: N-glycans (four modelled on chain A, two on chain B of the crystal structure; sites not given)
notes: human LI-cadherin, extracellular cadherin repeats 1-4; Theoretical mass without glycan 49.8 kDa; also called EC1-4WT; WT; source: Expi293F cells, culture supernatant, purified (Ni-NTA IMAC, SEC)
B4: human LI-cadherin EC1-4 L355A (domain or fragment)
chain: QEGKFSGPLKPMTFSIYEGQEPSQIIFQFKANPPAVTFELTGETDNIFVIEREGLLYYNRALDRETRSTHNLQVAALDANGIIVEGPVPITIKVKDINDNRPTFLQSKYEGSVRQNSRPGKPFLYVNATDLDDPATPNGQLYYQIVIQLPMINNVMYFQINNKTGAISLTREGSQELNPAKNPSYNLVISVKDMGGQSENSFSDTTSVDIIVTENIWKAPKPVEMVENSTDPHPIKITQVRWNDPGAQYSLVDKEKLPRFPFSIDQEGDIYVTQPLDREEKDAYVFYAVAKDEYGKPLSYPLEIHVKVKDINDNPPTCPSPVTVFEVQENERAGNSIGTLTAHDRDEENTANSFLNYRIVEQTPKLPMDGLFLIQTYAGMLQLAKQSLKKQDTPQYNLTIEVSDKDFKTLCFVQINVID
notes: as for B1
B5: human LI-cadherin EC1-4 Q404A (domain or fragment)
chain: QEGKFSGPLKPMTFSIYEGQEPSQIIFQFKANPPAVTFELTGETDNIFVIEREGLLYYNRALDRETRSTHNLQVAALDANGIIVEGPVPITIKVKDINDNRPTFLQSKYEGSVRQNSRPGKPFLYVNATDLDDPATPNGQLYYQIVIQLPMINNVMYFQINNKTGAISLTREGSQELNPAKNPSYNLVISVKDMGGQSENSFSDTTSVDIIVTENIWKAPKPVEMVENSTDPHPIKITQVRWNDPGAQYSLVDKEKLPRFPFSIDQEGDIYVTQPLDREEKDAYVFYAVAKDEYGKPLSYPLEIHVKVKDINDNPPTCPSPVTVFEVQENERLGNSIGTLTAHDRDEENTANSFLNYRIVEQTPKLPMDGLFLIQTYAGMLALAKQSLKKQDTPQYNLTIEVSDKDFKTLCFVQINVID
notes: as for B1
B6: human LI-cadherin EC1-4 N371A (domain or fragment)
chain: QEGKFSGPLKPMTFSIYEGQEPSQIIFQFKANPPAVTFELTGETDNIFVIEREGLLYYNRALDRETRSTHNLQVAALDANGIIVEGPVPITIKVKDINDNRPTFLQSKYEGSVRQNSRPGKPFLYVNATDLDDPATPNGQLYYQIVIQLPMINNVMYFQINNKTGAISLTREGSQELNPAKNPSYNLVISVKDMGGQSENSFSDTTSVDIIVTENIWKAPKPVEMVENSTDPHPIKITQVRWNDPGAQYSLVDKEKLPRFPFSIDQEGDIYVTQPLDREEKDAYVFYAVAKDEYGKPLSYPLEIHVKVKDINDNPPTCPSPVTVFEVQENERLGNSIGTLTAHDRDEEATANSFLNYRIVEQTPKLPMDGLFLIQTYAGMLQLAKQSLKKQDTPQYNLTIEVSDKDFKTLCFVQINVID
notes: as for B1
B7: human LI-cadherin EC1-4 N222A (domain or fragment)
chain: QEGKFSGPLKPMTFSIYEGQEPSQIIFQFKANPPAVTFELTGETDNIFVIEREGLLYYNRALDRETRSTHNLQVAALDANGIIVEGPVPITIKVKDINDNRPTFLQSKYEGSVRQNSRPGKPFLYVNATDLDDPATPNGQLYYQIVIQLPMINNVMYFQINNKTGAISLTREGSQELNPAKNPSYNLVISVKDMGGQSEASFSDTTSVDIIVTENIWKAPKPVEMVENSTDPHPIKITQVRWNDPGAQYSLVDKEKLPRFPFSIDQEGDIYVTQPLDREEKDAYVFYAVAKDEYGKPLSYPLEIHVKVKDINDNPPTCPSPVTVFEVQENERLGNSIGTLTAHDRDEENTANSFLNYRIVEQTPKLPMDGLFLIQTYAGMLQLAKQSLKKQDTPQYNLTIEVSDKDFKTLCFVQINVID
notes: as for B1
B8: human LI-cadherin EC1-4 V210A (domain or fragment)
chain: QEGKFSGPLKPMTFSIYEGQEPSQIIFQFKANPPAVTFELTGETDNIFVIEREGLLYYNRALDRETRSTHNLQVAALDANGIIVEGPVPITIKVKDINDNRPTFLQSKYEGSVRQNSRPGKPFLYVNATDLDDPATPNGQLYYQIVIQLPMINNVMYFQINNKTGAISLTREGSQELNPAKNPSYNLAISVKDMGGQSENSFSDTTSVDIIVTENIWKAPKPVEMVENSTDPHPIKITQVRWNDPGAQYSLVDKEKLPRFPFSIDQEGDIYVTQPLDREEKDAYVFYAVAKDEYGKPLSYPLEIHVKVKDINDNPPTCPSPVTVFEVQENERLGNSIGTLTAHDRDEENTANSFLNYRIVEQTPKLPMDGLFLIQTYAGMLQLAKQSLKKQDTPQYNLTIEVSDKDFKTLCFVQINVID
notes: as for B1
B9: human LI-cadherin EC1-2 (domain or fragment)
chain: GPLKPMTFSIYEGQEPSQIIFQFKANPPAVTFELTGETDNIFVIEREGLLYYNRALDRETRSTHNLQVAALDANGIIVEGPVPITIKVKDINDNRPTFLQSKYEGSVRQNSRPGKPFLYVNATDLDDPATPNGQLYYQIVIQLPMINNVMYFQINNKTGAISLTREGSQELNPAKNPSYNLVISVKDMGGQSENSFSDTTSVDIIVTE
notes: human LI-cadherin, extracellular cadherin repeats 1-2; source: Expi293F cells, culture supernatant, purified (Ni-NTA IMAC, SEC)
B10: human LI-cadherin EC1-5 (domain or fragment)
chain: QEGKFSGPLKPMTFSIYEGQEPSQIIFQFKANPPAVTFELTGETDNIFVIEREGLLYYNRALDRETRSTHNLQVAALDANGIIVEGPVPITIKVKDINDNRPTFLQSKYEGSVRQNSRPGKPFLYVNATDLDDPATPNGQLYYQIVIQLPMINNVMYFQINNKTGAISLTREGSQELNPAKNPSYNLVISVKDMGGQSENSFSDTTSVDIIVTENIWKAPKPVEMVENSTDPHPIKITQVRWNDPGAQYSLVDKEKLPRFPFSIDQEGDIYVTQPLDREEKDAYVFYAVAKDEYGKPLSYPLEIHVKVKDINDNPPTCPSPVTVFEVQENERLGNSIGTLTAHDRDEENTANSFLNYRIVEQTPKLPMDGLFLIQTYAGMLQLAKQSLKKQDTPQYNLTIEVSDKDFKTLCFVQINVIDINDQIPIFEKSDYGNLTLAEDTNIGSTILTIQATDADEPFTGSSKILYHIIKGDSEGRLGVDTDPHTNTGYVIIKKPLDFETAAVSNIVFKAENPEPLVFGVKYNASSFAKFTLIVTDVNEAPQF
modifications: N-glycosylated (Expi293F), Ca2+-bound; limits by convention: mature N-terminus as in PDB 7CYM (EC1-4), end of the UniProt Cadherin 5 domain; His tag omitted; homodimerizes / N-glycosylated …

Columns and labels:
[1] = target: the molecule itself; test: SEC-MALS; Superose 12 10/300 GL, 45 μl injected at 100 μM or 50 μM, eluted at about 4 μM; protein conjugate analysis
[2] = target: the molecule itself; test: AUC; sedimentation velocity (SV-AUC), 20 °C, buffer A (10 mM Hepes-NaOH pH 7.5, 150 mM NaCl, 3 mM CaCl2); EC1-7 at 1-20 μM, EC1-2, EC3-4, EC1-4, EC1-5 at 1-60 μM, EC1-4F224A at 1-120 μM; KD of the monomer-dimer equilibrium (dimer to monomers) from the weight-average sedimentation coefficient, SEDPHAT
human LI-cadherin EC1-5 = target: T1, human LI-cadherin EC1-5; test: as above; conditions: both partners purified

Binder	binding result [1]	also measured
B1	binds	
B2	binds	
B3		Kd [2]: 39.8 µM; stoichiometry N [2]: 2
B4	binds	
B5	binds	
B6	binds	
B7	binds	
B8	binds	
B9		Kd [2]: 75 µM; stoichiometry N [2]: 2
B10		Kd (human LI-cadherin EC1-5): 22.8 µM; stoichiometry N (human LI-cadherin EC1-5): 2
